These are literature values, as cited in publication PMC3367028.

This data set deals with CD74 (Homo sapiens) (UniProt P04233). Description: SPR. In general terms: In SPR one partner is held on a chip, and binding of the other changes the refractive index at the surface.
UniProt P04233, sequence (P04233 73-296): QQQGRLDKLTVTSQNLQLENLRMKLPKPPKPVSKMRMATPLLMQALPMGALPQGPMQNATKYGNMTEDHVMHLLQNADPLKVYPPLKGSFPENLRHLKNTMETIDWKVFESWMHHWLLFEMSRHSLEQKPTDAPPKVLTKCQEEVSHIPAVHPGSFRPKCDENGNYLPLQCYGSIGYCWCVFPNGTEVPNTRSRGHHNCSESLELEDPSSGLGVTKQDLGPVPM

In the case of D-DT (from UniProt P30046), the Kd – broadly, the equilibrium constant for the complex coming apart – is 5.42 nM.
